The target in assay [1] is CD30 expressed on L540 cells (Homo sapiens (Human)) (UniProt P28908). The assay is described as follows: flow cytometry on CD30-expressing L540 cells, FITC-labeled goat anti-human secondary. For orientation: A flow cytometer gives signals particle by particle.
Assay [2] concerns the target FcγRIIIa Phe/Phe^158 on human effector cells (human) (UniProt P08637).
Assay [3] concerns the target CD30 expressed on L540 cells (Homo sapiens (Human)) (UniProt P28908).

For orientation: EC50 means the midpoint of the concentration-response curve. Low values mean higher potency in that assay, high ones lower potency in that assay.

UniProt P28908, sequence (P28908 19-595 limits assumed): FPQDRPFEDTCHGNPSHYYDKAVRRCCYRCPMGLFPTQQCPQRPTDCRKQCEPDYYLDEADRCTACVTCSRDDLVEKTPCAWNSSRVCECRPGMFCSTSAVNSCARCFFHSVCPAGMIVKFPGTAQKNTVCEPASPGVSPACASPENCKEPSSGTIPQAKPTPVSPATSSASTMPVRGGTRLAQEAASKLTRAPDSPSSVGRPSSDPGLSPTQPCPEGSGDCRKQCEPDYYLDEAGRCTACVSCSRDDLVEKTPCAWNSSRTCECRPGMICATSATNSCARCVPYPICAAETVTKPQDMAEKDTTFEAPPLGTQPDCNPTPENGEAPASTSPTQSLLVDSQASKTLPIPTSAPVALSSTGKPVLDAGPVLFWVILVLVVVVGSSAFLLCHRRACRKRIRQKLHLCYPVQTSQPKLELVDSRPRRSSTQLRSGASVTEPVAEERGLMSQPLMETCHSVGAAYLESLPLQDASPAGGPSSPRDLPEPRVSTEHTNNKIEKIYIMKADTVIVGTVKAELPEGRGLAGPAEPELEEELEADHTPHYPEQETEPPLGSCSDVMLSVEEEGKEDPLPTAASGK

For the substance MDX-060 CHO (antibody), in assay [1], the EC50 was found to be 0.18 µg/mL. In assay [2], this substance returned an ADCC, maximal percent cell lysis (homozygous FcγRIIIa Phe/Phe^158 effector cells) of 15%. In assay [3], this substance gave an ADCC, maximal percent cell lysis (heterozygous FcγRIIIa Phe/Val^158 effector cells) of 31%.
For MDX-060 LEX (antibody) the same measures were 0.227 µg/mL, 27% and 31%.
For MDX-060 LEX^Opt (antibody), the EC50 in assay [1] was 0.196 µg/mL. In addition, in assay [2], the ADCC EC50, times lower than MDX-060 CHO (FcγRIIIa Phe/Phe^158 effector cells) came to 3 times lower. Also, in assay [3], the ADCC EC50, times lower than MDX-060 CHO (FcγRIIIa Val/Phe^158 effector cells) was determined as 5 times lower and the ADCC EC50, times lower than MDX-060 LEX (FcγRIIIa Val/Phe^158 effector cells) was 3 times lower.

The values are drawn from US8716557B2.
